Substitutions are numbered along the chain they refer to.
Tests used:
[1] = target: the molecule itself; assay: self-association; non-reducing SDS-PAGE, CBB staining
Excerpt: The recovered culture supernatant was applied to an antibody column obtained by immobilizing mouse anti-human AIM monoclonal antibody (clone 7, autologously manufactured) on HiTrap NHS-activated HP column (GE Healthcare Life Sciences) to purify human rAIM. The human rAIM bound to the antibody column was eluted with 0.1 M glycine-HCl (pH2.5), and immediately neutralized with 1 M Tris-HCl (pH 8.5) to obtain human rAIM eluate. The buffer in the eluate was substituted with Dulbecco's Phosphate-Buffered Saline (DPBS) by using Amicon Ultra filter concentrators (Millipore) to perform concentration. The protein level of the human rAIM concentrate was quantified using Bcinchoninic acid (BCA) assay (Pierce), and the final concentration was adjusted to 2.0 mg/mL with DPBS. The wild-type human rAIM protein (1 μg) purified and concentrated as mentioned above was separated under non-reducing conditions by polyacrylamide gel electrophoresis (SDS-PAGE) based on the difference in the molecular weights, Coomassie Brilliant Blue (CBB) staining was performed, and wild-type human rAIM was detected.
The wild-type mouse rAIM was prepared as follows. […] The protein level of the mouse rAIM concentrate was quantified using BCA assay, and the final concentration was adjusted to 2.0 mg/mL with DPBS. […]

[2] = target: the molecule itself; assay: self-association; non-reducing SDS-PAGE, Oriole staining, 100 ng
[3] = target: the molecule itself; assay: self-association; non-reducing SDS-PAGE, Oriole staining
Excerpt: To verify the possibility of the cysteine at amino acid number 168 and the cysteine at amino acid number 277 of wild-type human AIM shown in SEQ ID NO: 1 being involved in the multimerization of wild-type human rAIM, the inventors prepared mutant human rAIM in which the above-mentioned cysteines are substituted with different amino acids. First, to maintain the function of wild-type human rAIM, the amino acid to be used for substitution was studied. Since cysteine is hydrophilic (hydrogen bond can be formed), electric charge 0, and non-aromatic, serine, threonine, asparagine, glutamine were selected as 4 similar amino acids. […] The mutant human rAIM was prepared as follows. […] The purified and concentrated wild-type, 2CS, 3CS, 2/3CS human rAIM proteins, each 100 ng, were separated by SDS-PAGE under non-reducing conditions based on the difference in the molecular weights, Oriole staining was performed, and each human rAIM protein was detected.

B1: wild-type mouse recombinant AIM (other)
chain: VQLVGGAHRCEGRVEVEHNGQWGTVCDDGWDRRDVAVVCRELNCGAVIQTPRGASYQPPASEQRVLIQGVDCNGTEDTLAQCELNYDVFDCSHEEDAGAQCENPDSDLLFIPEDVRLVDGPGHCQGRVEVLHQSQWSTVCKAGWNLQVSKVVCRQLGCGRALLTYGSCNKNTQGKGPIWMGKMSCSGQEANLRSCLLSRLENNCTHGEDTWMECEDPFELKLVGGDTPCSGRLEVLHKGSWGSVCDDNWGEKEDQVVCKQLGCGKSLHPSPKTRKIYGPGAGRIWLDDVNCSGKEQSLEFCRHRLWGYHDCTHKEDVEVICTDFDV
notes: Secreted from HEK293 / HEK293T cells; also called wild-type mouse rAIM; mouse rAIM
Question: Does B1 bind [1]?
Answer: Result: binds

B2: mutant mouse AIM 2CS (cysteine 168 of SEQ ID NO: 2 substituted with serine) (other)
chain: B1 chain with C168S
notes: Expressed transiently in HEK293T cells; also called 2CS mouse rAIM
Question: Does B2 bind [2]?
Answer: Result: no binding

B3: mutant human AIM 2CS (cysteine 168 of SEQ ID NO: 1 substituted with serine) (other)
chain: VRLVGGLHRCEGRVEVEQKGQWGTVCDDGWDIKDVAVLCRELGCGAASGTPSGILYEPPAEKEQKVLIQSVSCTGTEDTLAQCEQEEVYDCSHDEDAGASCENPESSFSPVPEGVRLADGPGHCKGRVEVKHQNQWYTVCQTGWSLRAAKVVCRQLGCGRAVLTQKRSNKHAYGRKPIWLSQMSCSGREATLQDCPSGPWGKNTCNHDEDTWVECEDPFDLRLVGGDNLCSGRLEVLHKGVWGSVCDDNWGEKEDQVVCKQLGCGKSLSPSFRDRKCYGPGVGRIWLDNVRCSGEEQSLEQCQHRFWGFHDCTHQEDVAVICSG
notes: Expressed transiently in HEK293T cells; also called 2CS human rAIM
Question: Does B3 bind [3]?
Answer: Result: binds

B4: mutant human AIM 3CS (cysteine 277 of SEQ ID NO: 1 substituted with serine) (other)
chain: B3 chain with S168C, C277S
notes: Expressed transiently in HEK293T cells; also called 3CS human rAIM
Question: Does B4 bind [3]?
Answer: Result: binds

B5: mutant human AIM 2/3CS (cysteines 168 and 277 of SEQ ID NO: 1 substituted with serine) (other)
chain: B3 chain with C277S
notes: Expressed transiently in HEK293T cells
Question: Does B5 bind [2]?
Answer: Result: no binding

B6: wild-type human recombinant AIM (apoptosis inhibitor of macrophage, CD5L) (other)
chain: B3 chain with S168C
notes: Secreted from HEK293 / HEK293T cells; also called wild-type human rAIM; human rAIM
Question: Does B6 bind [1]?
Answer: Result: binds

From patent US20200399332A1 (published 2020)
